Literature values, collected in article PMC4467374.

Legend:
[1] = target: histone H3 K4me3/K9me3 peptide (Homo sapiens) (UniProt P68431)
[2] = target: histone H3 K9me3 peptide (Homo sapiens) (UniProt P68431)

Sequence of UHRF1 TTD (Q96T88 124-285): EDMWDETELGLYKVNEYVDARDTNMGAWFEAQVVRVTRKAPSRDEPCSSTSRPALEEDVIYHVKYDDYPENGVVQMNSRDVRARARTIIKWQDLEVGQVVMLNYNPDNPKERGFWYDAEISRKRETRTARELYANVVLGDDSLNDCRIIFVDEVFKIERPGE

- Kd [1]: 90 µM
- Kd [2]: 20 µM
Substance: UHRF1 TTD (from UniProt Q96T88)
